This note sets out measurements from article PMC11998529.

This assay addresses mitochondrial antiviral signaling protein (MAVS), full length, Flag-tagged (human (cDNA from HEK293T)) (UniProt Q7Z434).
UniProt Q7Z434, sequence (Q7Z434 whole entry): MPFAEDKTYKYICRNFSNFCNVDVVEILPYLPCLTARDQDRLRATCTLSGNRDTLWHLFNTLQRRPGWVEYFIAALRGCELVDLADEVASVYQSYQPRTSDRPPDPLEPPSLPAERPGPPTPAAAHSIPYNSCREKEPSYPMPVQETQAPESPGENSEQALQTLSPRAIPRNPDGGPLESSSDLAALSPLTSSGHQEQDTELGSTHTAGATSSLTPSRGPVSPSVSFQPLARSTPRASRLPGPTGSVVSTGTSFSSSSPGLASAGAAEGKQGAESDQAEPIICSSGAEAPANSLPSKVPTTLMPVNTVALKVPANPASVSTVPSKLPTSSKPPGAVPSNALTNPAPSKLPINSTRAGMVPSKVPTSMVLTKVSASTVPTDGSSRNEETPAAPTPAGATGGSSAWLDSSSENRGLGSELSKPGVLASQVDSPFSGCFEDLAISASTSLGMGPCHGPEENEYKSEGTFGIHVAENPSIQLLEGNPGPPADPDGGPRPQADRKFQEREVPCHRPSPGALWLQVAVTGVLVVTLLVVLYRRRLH

As for “EV-D68 structural protein VP3, HA-tagged (from UniProt Q68T42 318-552) (natural protein)”, the inhibition of MAVS-activated NF-κB promoter activity, dual-luciferase reporter in HEK293T, 600 ng VP3-HA plasmid worked out at 70%.
